Data published in the supplement of paper PMC11502859.

test system: HEK293T; test: median enrichment of reporter reads in eGFP-reduced (low/intermediate) vs eGFP-high sorted cells (eGFP-extension fusion abundance) (ratio); higher = stronger loss of eGFP-fusion protein abundance (more destabilising extension)
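Note: lentiviral eGFP-IRES-mCherry reporter pool sorted by FACS 96 h post-transduction, gated on mCherry-high cells, Illumina read counts normalized per million, median across four biological replicates.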

Substance | median enrichment
LTHAHAPLTLKRIHNSLEKHPHVCCRTHSSQLRPIPVTTASPPTPVTTASPPTPVTTASPPTALSPRPMSACPRAQDFLTGMW [SSH3] | 3.55
CGEPLAWPTNLGFTIQTADWMKLCTFLSLQLPYVESVIFICTFFAT [TAF7L] | 10.8
EEEEEEEEEE [Glu10] | 0.42
YSV [ILF3] | 0.744
RACGAAGAGEASRGRVLRQELDSPTLLSSRQGPGSHILLTLERLELTPLDGKCISEKGKAAWGSPI [SLC1A7] | 9.89
HHHHHH [His06] | 0.337
WSPMPAHL [CDNF] | 9.59
LVLCS [PIGX] | 9.44
CGAEHHPSH [PPM1J] | 0.355
KGN [CYTL1] | 0.283
RHRRTPGDFLYICRLRLFVTSKWDIV [TAF4] | 12
YKPGGSSHSCSQGHWARAAHAQEARFEGICEAAACCCTCAFSLPLPSLSSHGGVRSCPCSESTFPAIPGAGGACASAIPCDQA [TSSK6] | 3.81
SGTWCATGCKLQGIFIGCSCIVLHSSAIYF [PSEN2] | 7.44
RASSFS [KLHL10] | 0.821
SNRIEQNRIE [PCSK5] | 0.616
EHVGSVPTQCFGKCKI [DNAH5] | 0.681
RNQVASCPLLRGNPRPLASLPTYKALSQGIAGPRCLDPGCASPSLCSPWKGR [HSPBP1] | 7.21
WGPPRARRTGTELSRGRSPRQAQLV [CDS2] | 11.7
SGSCCVPTETTIWGLLGNAVNAEGSDVWVL [PATZ1] | 10.9
WALHPARS [IQCD] | 0.961
SVGEWAGMCILLPNSSIQDCAHIRSTRTSSHQHKNINRNAALSTV [WFDC10A] | 5.12
WWW [Trp03] | 2.55
YQFCPTSLSPQPLQSSVTCCGLYSGSALATSPNISSSFSPSDLTVQ [JOSD1] | 7.58

Substance | median enrichment
LLLLLLL [Leu07] | 12.7
YGDFPVQ [GPALPP1] | 0.42
CQVLCGAEIPCRHFACSNQQDPAPRSPGAIIMQPAVLLWRGQVTFQKTPSWMGLPFCSSPHSRISNGSLL [BCL2L11] | 11
WAAAARPSGTPASPGGALGQVPSGRTTPGPQGPRPAATLVVAASRSAFGRPLGVAGAARRVQVEVPVPGPQRA [B3GALT6] | 8.24
YAPL [SLC3A1] | 0.632
LDLVQHGNDSYRLIQQLTLRQVVLFQRPLFLPKPCYELNQMCQVFSGVLSNILFSCMGTSPLQMTMLMDLFIYLFKSLFS [IFNA8] | 6.11
RSAAIRWKPLEPEAAA [FXYD6] | 12
CCCC [Cys04] | 2.06
KSIIILQHLRVWQLFVWAFAHAMPSLPSPTPTRGDS [SPATA12] | 8.97
QVPFPLLNIKLNSI [NSMAF] | 2.85
CSQVGFA [TUSC3] | 0.572
AEWPGTCLKCLFPISLRDQEGILGMPLTSLLSRQQKWRGSQESALNCPPGWQGSLNRYLELGSGLFPCVLTTRASCSRAGIRG [F11R] | 9.01
LNQSVFPACAELLI [ZP4] | 3.4
LNFQQRPSKDILQDSVIVNIWKVLEIFIVCKYCKCIGIKLSPPLLYETAHWSL [PTHLH] | 0.919
RKWNS [GCSH] | 0.655
WQP [TP53AIP1] | 0.544
RAKPDGQHRHRHTPQGPTLLSFTVPWHIGERIYPSPGSPGHSVLSKTRMWYQLWKRKVSCQQYLLPSRQPSQVRHLLRSHREP [SPSB4] | 7.24
YNPFALMSLPFVT [SIX2] | 1.36
SVGQATPPSSSCLRRSHSIHWNRSWVSLCSCLSFPRDPTPLWGSGTLHCTGSLHTGRGTCAPTSETCRSPQLTCPTGAQHCTQ [MAP3K11] | 5.17
RAGPAPCPRSPLLSRPHPPPARPTRGATPPFESLAVGWTLPFPEAA [C1QL4] | 13.1
GGLLSVLGTPGPYRTRAAALSHPLGRRYGSSVPLASMWSGGDAAPVVGTSWGDPRPSLAGLSPVPISHSGPRADILIK [GUK1] | 2.98
KARFLAVQFLLKVPLFPKSNY [HBB] | 5.47
YVLIGLPAGCDSKA [CBX2] | 14

Substance | median enrichment
CRRQKISFVQKSKMKRM [INSIG2] | 3.96
QENKNCRK [MRPL13] | 0.366
EVHTVCHRMAHVIAHFCVDMVLV [ATP5IF1] | 11
CLFCPHIFCFLGRMAEAWWLPPRSGTD [NR1H3] | 12.1
KRTQPPSAQREATSQPRGGRIRKQSHS [CCK] | 0
WPGGGKHREREWPSGNPAGYPNPKGSYSQRHILVFVIILYQK [VPS26C] | 16.9
DISSYLTMLSLLGAVLVGPGPCIMPRSQLQGPSWGPGWALGSGPCCSSPSHQPVPVVRKPGLLSSFLLGECQTQGPSTGLGWE [BAP1] | 5.92
YDLIQHRNDSH [IFNA6] | 0.697
SPQDQGKEDGRTGAKLVGGRGGGGRDDRPWMCPQGPRSEVSTVLPARAPVPPLAATPSPIISFAPRLLRGAPVLAPAPTSAPD [FOXP3] | 1.18
CGILGDSPREELGC [CEP85] | 0.759
EEESLPPPKYWAALSLPRDHPSLPAMCTIMTNLFGYAVVLPFWGLGSTRRLCLQCRNLFSLCVAGARAQGPCLCIFNKYSFSK [GPR108] | 0.994
QSTGRKCFWTEVVAVEGVASSCRQTIILEILVEVPSPIRHSNMSTNALKWN [EPHA3] | 14.9
SAMVSRAPHTRVYTRTMWYVARPGPGVRLGQPQLSLPLLLIQGVTRHLSLCYFWPQQEPVLGYFCPCSSQPNSGLAHPSPPPK [KCNJ11] | 5.63
KTTFPKENIRGFHC [CPVL] | 0.477
QGNPRSNQGGGS [POLA1] | 0.576
QGVSLSLSFCIICLAECVYRLPKFTKKL [VNN2] | 10.5
EVNV [CLEC2B] | 0.328
LGRLCPLPASLLCFPSPVSSLPSRPRHLPSVPWLSRTFYPTVRPQRGQDKPCPDAFDRQLCVLVDRCRNKEEMESAPEKLQIQ [H6PD] | 6.07
LEKPQVLLRLLSLPCQVSPVLTIQLGSTPFALLPCHTVLCLLFQVGMIMPSPANILQGPPNLIAGHSQPSESESRFLLSLPSS [PGLYRP4] | 7.65
YPPAQPRTDMNIGWTEVASV [PIP4K2A] | 5.83
GTQSSLLAVDFPLLLEPPIKEIQRDSCRPEAEHTFMAGALRGVLDPAPGDTIHFYCFVVTRALQPVFLKNQGPLPPPLPWGET [PLOD1] | 6.78
RIFTHIYLVSIG [FAM129C] | 28.5
SKACILFEDIYKAI [KRT34] | 2.29

Substance | median enrichment
YLKKTVLSAMTLYIKGVLFC [PLAAT3] | 13.8
SCSNGKMALFKPGPPIGQTQQQTRGQGSPVALSIEDRFLGSRRGWRKLKAGE [BTN3A2] | 5.24
DQPHSAQEAASGVGAQRGTAASSTAGCGAAGPGPSAWAAEYIFYLSETSIFLGSNPTCHHVDISSYLTMLSLLGAVLVGPGPC [BAP1] | 4.59
YISLFVSMRCPTGPI [CADM1] | 15.7
GGRVGHPKR [ZNF786] | 0.607
WRGEGRPAVDSLILGRSLGCAAISFCECANTKLSRAKL [SLC25A25] | 6.74
SPPGPSPGSGTLVPNPERSALLP [VPS35L] | 0.894
GPWDTAFSFARLSACRPGGEPGPANESLVYLGCNSLKVQSFGLQSCPGPGSPGHCCSPRPWALVFLQHHTCCPFSISVCVKGD [MYO1F] | 5.6
LFILEINLTNVMNVEKLLRGSWPLVNTREFILERNPTFVKNVAKPLSAPQPLQATREFIWKRDLTNVKNAAKPVFLRPD [ZNF727] | 15.7
RSSTRDWKDHKLKWRKDPQDT [FCGR3B] | 2.73
LLK [HGF] | 1.66
RGCQLGRKRETRP [CCND2] | 0.783
REQQMELWERGEQWGYRESSSALPLGQPHLPAVSPGHFSTSQVEVLQGPAATCIRRTSFSA [SPATA19] | 4.52
ELSASARRASLPNQPWVPGSRLEPAINSLFLAPGSNGGPHLRTSGEAIAPSGEVMHFLSTYCLPGPRAHGEETWAHPCRKRDN [TSSK6] | 3.11
RESSCILENTIPDFPQTALHQYNCISSFYIVQ [SCRG1] | 13.8
QHYS [C4BPB] | 0.456
QNIQVINELCYGIIALLYAG [CC2D2B] | 8.94
QTTFPKENIRGFHC [CPVL] | 0.323
LTSSLQRSESGGGSACREGLDLHIFSGVVRASPYLLLSPCEEDPDLASFPRRGWGVPRVPVLEGPPSPSLITVLFSAPPSAAR [ZNF646] | 4.64
YGF [ITSN2] | 0.445
QHTQNSLTRTISFCKGF [KRR1] | 1.62
EPKEVPGTVSDLERSQKENNIIK [CELA2A] | 0
GGGGGGGGG [Gly09] | 3.85

Substance | median enrichment
QAAVAPGDVCFIVPFFLLV [CCNB2] | 8.22
YFLSVILP [GLB1L3] | 8.25
RDASTGPSLFCPQP [HSPB8] | 0.453
QSSF [PCNX4] | 0.571
YNYLLNQDKHAFLLPWFYL [NCKAP1] | 8.38
SLKPITVLTAQWN [KCNA2] | 10.7
SGSVTRCSLIPADLTGPLANPTSNQKCSSVESETGKWLLQDYSLLQKRNQIHEWKSLCKFNFITHNMYYFF [PUM1] | 8.89
KHHQSVKGLCGMQEFQTHGQSGLFFLVLRASSEHRSHIAAHREGWNEKWKRGSTFLLGDMNHLCSYYVIRNLVAWPYLAAREP [CFAP61] | 4.22
CDARQFLDLGGLKRPPSCLLSFSVSSFLLVFFILFSFHQPSCILALQRDRDRSSAQGFSLPLFIMGGGYHPPSQSCEESGTSF [NOTCH3] | 9.5
RGFRHCIPELL [PPM1M] | 1.19
RPRPGPALPPGAPTCNKCSEAGK [CYBA] | 0.134
SGQGPRTQCLARPLPLAFEAKASSR [AGT] | 0.949
SECTLQSWWFLRVGLDRVAAC [BPHL] | 7.67
GMSVVSCLQTPSPAQFI [SAMHD1] | 1.45
KGRGPAESPCCLLEPPADAVLGPT [MBD3] | 1.08
SNTAFNWELETH [PREPL] | 0.178
LRPHKHYGRSVGPQHGLPSGRPVLPEEGPACWPGACRHC [ZGPAT] | 6.53
SNIRFVIRNTLCLLWSCARWPQMDYRRLQRTRQMEH [BCL2L14] | 16.6
CTTQDTHSTCMNNTGHTQARA [CCDC40] | 1.14
